How the values were obtained:
[1] = target: Trastuzumab (glycan-intact) (Homo sapiens)

Activa TI microbial transglutaminase (Ajinomoto) (enzyme)
% DOL 2 (fraction of antibody fully modified with 3-APA, LC-MS) [1]: 81%

recombinant Microbial transglutaminase from Zedira (catalog number T001) (enzyme)
% DOL 2 (fraction of antibody fully modified with 3-APA, LC-MS) (Pertuzumab): 100%
% DOL 2 (fraction of antibody fully modified with 3-APA, LC-MS) (Panitumumab): 69%

From US20210363177A1
